Measured values reported in patent publication US20150018285A1 (CARMEL HAIFA UNIVERSITY ECONOMIC, published 2015).

Columns and labels:
[1] = target: T1, X-linked inhibitor of apoptosis protein (XIAP) (human, UniProt P98170 1-497); assay: IP of the mitochondrial fraction with anti-Bcl-2 antibody, Western blot (FIG. 4E)
T1 construct: Endogenous XIAP in cell lysates; also called IAP3; BIRC
Protocol: Mitochondrial fraction was immunoprecipitated using anti-Bcl-2 antibody. The precipitate was analyzed by Western blotting.

[2] = target: T2, B-cell lymphoma-extra large (Bcl-xL) (human, UniProt Q07817 1-233); assay: IP with monoclonal anti-ARTS antibody from HeLa wt lysate, Western blot (FIG. 9); binding still seen after 24 h of ABT-263
T2 construct: also called Bch xL
T2 sequence (Q07817 whole entry G70A): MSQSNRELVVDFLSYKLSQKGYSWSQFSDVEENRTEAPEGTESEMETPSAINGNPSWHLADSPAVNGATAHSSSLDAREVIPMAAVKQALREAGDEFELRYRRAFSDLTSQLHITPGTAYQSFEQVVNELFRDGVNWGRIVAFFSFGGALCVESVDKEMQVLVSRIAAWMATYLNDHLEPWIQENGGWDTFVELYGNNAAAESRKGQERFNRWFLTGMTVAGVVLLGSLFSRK

[3] = target: T1, X-linked inhibitor of apoptosis protein …; assay: IP with anti-ARTS monoclonal antibody from COS-7 cells transfected with the 6-Myc-ARTS construct; the partner is endogenous in COS-7 (FIG. 4B)
Protocol: FIG. 4B. […] The precipitate was analyzed by Western blotting.

[4] = target: T3, B-cell CLL/lymphoma 2 (Bcl-2) (human, UniProt P10415 1-239); assay: immunoprecipitation of transfected HeLa lysates with anti-Bcl-2 antibody, Western blot with anti-ARTS (FIG. 11A)
T3 construct: Used as endogenous Bcl-2 (HeLa, BT-549) or from a transfected Bcl-2 construct; also called Bch 2; endogenous Bcl-2
T3 sequence (P10415 whole entry): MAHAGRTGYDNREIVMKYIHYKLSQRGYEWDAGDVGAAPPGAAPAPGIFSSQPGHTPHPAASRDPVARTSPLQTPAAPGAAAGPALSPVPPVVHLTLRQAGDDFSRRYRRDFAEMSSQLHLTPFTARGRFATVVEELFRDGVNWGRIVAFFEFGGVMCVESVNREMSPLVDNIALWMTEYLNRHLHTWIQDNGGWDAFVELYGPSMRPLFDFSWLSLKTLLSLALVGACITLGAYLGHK

T1 sequence (P98170 whole entry): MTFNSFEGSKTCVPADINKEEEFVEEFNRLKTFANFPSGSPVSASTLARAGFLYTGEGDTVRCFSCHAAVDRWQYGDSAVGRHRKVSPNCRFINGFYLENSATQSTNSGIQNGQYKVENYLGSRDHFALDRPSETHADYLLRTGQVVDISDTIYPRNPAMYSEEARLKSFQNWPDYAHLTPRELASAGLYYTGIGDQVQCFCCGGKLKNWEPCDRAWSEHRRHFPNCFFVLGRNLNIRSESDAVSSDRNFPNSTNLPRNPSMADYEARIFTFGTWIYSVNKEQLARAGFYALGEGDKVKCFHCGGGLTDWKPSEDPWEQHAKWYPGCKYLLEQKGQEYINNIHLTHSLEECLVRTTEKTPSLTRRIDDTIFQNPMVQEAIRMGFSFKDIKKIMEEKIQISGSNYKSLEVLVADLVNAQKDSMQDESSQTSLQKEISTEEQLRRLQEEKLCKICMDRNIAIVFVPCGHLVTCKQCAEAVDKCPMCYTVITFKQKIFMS

B1: Apoptosis Related Protein in the TGF-beta Signaling Pathway (ARTS) (other)
chain: MIKRFLEDTTDDGELSKFVKDFSGNASCHPPEAKTWASRPQVPEPRPQAPDLYDDDLEFRPPSRPQSSDNQQYFCAPAPLSPSARPRSPWGKLDPYDSSEDDKEYVGFATLPNQVHRKSVKKGFDFTLMVAGESGLGKSTLVNSLFLTDLYRDRKLLGAEERIMQTVEITKHAVDIEEKGVRLRLTIVDTPGFGDAVNNTECWKPVAEYIDQQFEQYFRDESGLNRKNIQDNRVHCCLYFISPFGHGYGPSLRLLAPPGAVKGTGQEHQGQGCH
notes: also called FL ARTS; full length ARTS
B1: binds [1]; binds [2].

B2: 6-Myc-ARTS (other)
chain: MIKRFLEDTTDDGELSKFVKDFSGNASCHPPEAKTWASRPQVPEPRPQAPDLYDDDLEFRPPSRPQSSDNQQYFCAPAPLSPSARPRSPWGKLDPYDSSEDDKEYVGFATLPNQVHRKSVKKGFDFTLMVAGESGLGKSTLVNSLFLTDLYRDRKLLGAEERIMQTVEITKHAVDIEEKGVRLRLTIVDTPGFGDAVNNTECWKPVAEYIDQQFEQYFRDESGLNRKNIQDNRVHCCLYFISPFGHGYGPSLRLLAPPGAVKGTGQEHQGQGCH
notes: Expressed by transient transfection in COS-7 cells; also called pSC2-6Myc ARTS; not shown: 6xMyc tag of pSC2-6Myc
B2: binds [3].

B3: 128 amino acids N' terminus deletion mutated ARTS (other)
chain: MVAGESGLGKSTLVNSLFLTDLYRDRKLLGAEERIMQTVEITKHAVDIEEKGVRLRLTIVDTPGFGDAVNNTECWKPVAEYIDQQFEQYFRDESGLNRKNIQDNRVHCCLYFISPFGHGYGPSLRLLAPPGAVKGTGQEHQGQGCH
B3: no binding [4].
